How the values were obtained:
[1] = biological target: T1, GPC3 expressed on hepatoma cell line HepG2 (human, UniProt P51654 25-554); assay: flow cytometry on HepG2 cells, 1 µg antibody, PE anti-mouse IgG secondary; mean fluorescence
T1 construct: whole, on cells; also called GPC3-expressing tumor cells (HepG2); cells expressing GPC3
Description: (§1) First, hepatoma cell line HepG2 expressing GPC3 was reacted with 1 μg of each of 10E9, 8B2, 7C6, 7B9, 5E11, and 1A8 antibodies for 30 minutes, and then, after staining the surface with a secondary antibody, it was measured by flow cytometry.
(§2) GPC3 antibody (Sino biology Glypican3 APC cat #100393-R024-A, 10 u.1) was used as a positive control, and PE-conjugated anti-mouse IgG antibody (PE-conjugated goat anti-mouse IgG; Biolegend Inc., cat #405307, USA, 5 μl) was used as a secondary antibody.

[2] = biological target: T1, GPC3 expressed on hepatoma cell line …; assay: flow cytometry on HepG2 cells, 1 µg antibody, PE anti-mouse IgG secondary; median fluorescence
Description: as §1, §2

[3] = biological target: T2, GPC3 protein (Acrobiosystems, cat #GP3-H52H4) (UniProt P51654 25-559); assay: ELISA, GPC3 protein coated at 100 ng/well, 100 µl hybridoma culture, anti-mIgG-HRP
T2 construct: Bought protein coated on the ELISA plate at 100 ng/well; also called Glypican 3; GPC3 antigen
Description: First, in order to encode the GPC3 peptide, GPC3 protein (Acrobiosystems, cat #GP3-H52H4) was dispensed into a 96-well plate at an amount of […] and reacted overnight at 4° C. Then, after treatment with 1 X PBST containing 3% BSA, it was blocked for 30 minutes at room temperature.
100 μl of hybridoma cell culture of each clone producing 10E9, 8B2, 7C6, 7B9, 5E11 or 1A8 antibody was treated in each well, reacted at room temperature for 2 hours, and then washed three times with 1 X PBST. The secondary antibody ([…], 1:10,000) was treated and reacted at room temperature for 30 minutes, washed three times with 1 X PBST, and then treated with TMB for color development and reacted at room temperature for 5 minutes. Finally, the reaction was terminated by treatment with a stop solution of 1N H2SO 4, and then the absorbance was measured at 450 nm.

T2 sequence (P51654 25-559 limits assumed): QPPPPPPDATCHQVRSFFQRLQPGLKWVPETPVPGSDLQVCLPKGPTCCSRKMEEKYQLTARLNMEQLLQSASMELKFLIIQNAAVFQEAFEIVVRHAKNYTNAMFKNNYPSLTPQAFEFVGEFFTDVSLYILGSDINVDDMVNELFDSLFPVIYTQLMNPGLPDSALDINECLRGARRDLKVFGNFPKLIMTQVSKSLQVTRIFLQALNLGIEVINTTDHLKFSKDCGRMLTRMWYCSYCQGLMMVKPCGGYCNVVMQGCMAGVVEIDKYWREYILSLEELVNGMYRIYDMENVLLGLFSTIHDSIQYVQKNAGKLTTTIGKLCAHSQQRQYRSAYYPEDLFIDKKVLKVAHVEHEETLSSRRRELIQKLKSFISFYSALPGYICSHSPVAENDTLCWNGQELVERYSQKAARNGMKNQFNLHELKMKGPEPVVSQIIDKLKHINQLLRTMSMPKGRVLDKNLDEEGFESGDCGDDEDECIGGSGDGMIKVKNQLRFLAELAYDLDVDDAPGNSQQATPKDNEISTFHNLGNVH
T1 sequence (P51654 25-554 limits assumed): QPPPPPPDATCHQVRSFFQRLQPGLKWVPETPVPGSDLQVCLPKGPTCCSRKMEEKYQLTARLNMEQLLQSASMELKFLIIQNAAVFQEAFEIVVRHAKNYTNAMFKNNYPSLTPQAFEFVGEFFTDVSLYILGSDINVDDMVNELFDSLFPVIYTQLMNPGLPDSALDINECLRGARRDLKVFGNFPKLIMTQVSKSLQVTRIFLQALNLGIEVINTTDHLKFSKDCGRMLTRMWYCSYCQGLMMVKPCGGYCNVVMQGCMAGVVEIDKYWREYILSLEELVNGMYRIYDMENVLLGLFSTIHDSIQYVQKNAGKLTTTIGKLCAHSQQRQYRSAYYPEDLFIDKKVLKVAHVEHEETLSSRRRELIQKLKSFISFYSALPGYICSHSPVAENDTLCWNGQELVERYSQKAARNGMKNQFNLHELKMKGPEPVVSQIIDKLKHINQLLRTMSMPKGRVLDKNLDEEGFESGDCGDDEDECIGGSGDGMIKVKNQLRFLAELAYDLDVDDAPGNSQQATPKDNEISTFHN

Binder | Mean [1] | Median [2] | OD450 measurement [3] [OD450]
8B2 antibody (antibody, V domains shown, Mouse hybridoma monoclonal antibody, detected with anti-mouse IgG) VH: QVQLQQPGAELVKPGASVKMSCKASGYTFTSYNMHWVKQTPGQGLEWIGAIYPGNGYTSYNQKFKGKATLTADKSSSTAYMQLSSLTSEDSAVYYCARGGGPFAYWGQGTLVTVSA VL: DIVMTQSHKFMSTSVGDRVSITCKASQDVGTAVAWYQQKPGQSPKLLIYWPSTRHTGVPDRFTGSGSGTDFTLTISNVQSEDLADYFCQQYSSYPFTFGSGTKLEIK | 40000 | 31400 | 1.01
7C6 antibody (antibody, V domains shown, Mouse hybridoma monoclonal antibody, detected with anti-mouse IgG) VH: QVQLQQPGAELVKPGASVKLSCKASGYTFTTYYMYWVKQRPGQGLEWIGEINPSNGGTNFNEKFKSKATLTVDKSSSTAYMQLSSLTSEDSAVYYCTTFAYWGQGTLVTVSA VL: DIVMTQSPSSLSASLGGKVTITCKASQDINKYIVWYQHKPGKGPRLLIHYTSILQPGIPSRFSGSGSGRDYSFSISNLEPEDIATYYCLQYDNLWTFGGGTKLEIK | 81400 | 61800 | 2.88
10E9 antibody (antibody, V domains shown, Mouse hybridoma monoclonal antibody, detected with anti-mouse IgG; Used as hybridoma culture supernatant in the ELISA) VH: EVQLEESGTVLARPGASVKMSCKASGYTFTSYWMHWIKQRPGQGLEWIGAIYPGNSDTSYNQKFKGKAKLTAVTSTSTAYMELSSLTNEDSAVYYCTRGEYDYVLAYWGQGTLVTVSA VL: DIVMTQSPATLSVTPGDSVSLSCRASQSISNNLHWYQQKSHESPRLLIKFASQSISGIPSRFSGSGSGTDFTLSINSVETEDFGMYFCQQSNSWPHMYTFGGGTKLEIK | 33000 | 25200 | 2.32

Now from value to binder:

Mean [1] | Median [2] | OD450 measurement [3] [OD450] | Binder
27300 | 22000 | 2.54 | 7B9 antibody (antibody, V domains shown, Mouse hybridoma monoclonal antibody, detected with anti-mouse IgG) VH: not shown VL: DIVMTQSPAIMSASPGEKVTMTCRASSSVSSSYLHWYQQKSGASPKLWIYSTSKLASGVPARFSGSGSGTSYSLTISSVEAEDAATYYCQQYSGYPLITFGAGTKVELK
52600 | 40200 | 0.942 | 5E11 antibody (antibody, V domains shown, Mouse hybridoma monoclonal antibody, detected with anti-mouse IgG) VH: QVQLKQSGAELMKPGASVKISCKATGYTFSRYWIEWVKQRPGHGLEWIGEILPGSGSTSYNEKFKGKATFTADTSSNTAYMQLSSLTSEDSAVYYCARSARATYYFDYWGQGTTLTVSS VL: DIQMTQTTSSLSASLGDRVTISCWASQDISNYLNWYQQKPDGTVKLLIYYTSTLHSGVPSRFSGSGSGTDYSLTISNLEQEDIATYFCQQGNALPYTFGGGTKLEIK
36600 | 29000 | 2.65 | 1A8 antibody (antibody, V domains shown, Mouse hybridoma monoclonal antibody, detected with anti-mouse IgG) VH: QVQLQQPGSELVRPGASVKLSCKASGYTFTSYWMHWVKQRHGQGLEWIGNIYPGSGSTNYDEKFKSKGTLTVDTSSRTAYMHLSSLTSEDSAVYYCTRGHYDYAMDYWGQGTSVTVSS VL: DIVMTQSPSSLSASLGDTITITCHASQNINVWLSWYQQKPGNIPKLLIYKTSNLHTGVPSRFSGSGSGTGFTLTISSLQPEDIATYYCQQGQSYPWTFGGGTKLEIK

From patent publication US20240018262A1 (INNOBATION BIO, published 2024)
